Measured values reported in PMC11429574, “Biophysical and Solution Structure Analysis of Critical Residues Involved in the Interaction between the PupB N-Terminal Signaling Domain and PupR C-Terminal Cell Surface Signaling Domain from Pseudomonas capeferrum” (Biomolecules, 2024).

T1: PupB N-terminal signaling domain H72D (Pseudomonas capeferrum), P38047
T1 chain: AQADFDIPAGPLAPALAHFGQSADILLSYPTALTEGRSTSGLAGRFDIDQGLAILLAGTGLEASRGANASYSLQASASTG

B1: MBP-PupR C-terminal cell surface signaling domain (domain or fragment, Pseudomonas capeferrum)
chain: QDWRADYHSRIGEQRRLTLADGTQVQLNTDSALNVAFDQQARRLRLVRGEMLITRPALADSRPLWVDTEHGRLESTLAQFNVRLHGQHTQATVYQGSVALQPALHAYPPILLGAGEQASFNQQGLLARQAVAAVAPAWSQGMLVAQGQPLAAFIEDLARYRRGHLACDPALAGLRVSGTFPLENTDKIIAAVAETLQLEVQHFTRYWVTLKPRMA
notes: PupR, inner membrane sigma regulator (anti-sigma factor) of Pseudomonas capeferrum; periplasmic C-terminal cell surface signaling domain; residues A240 to A300 are named as interface residues; A TEV site lies between MBP and the domain; the MBP fusion was used uncleaved in the ITC for solubility and stability; also called MBP-PupR CCSSD; PupR CCSSD; not shown: MBP, N-terminal, kept
B2: PupB N-terminal signaling domain Q69K (domain or fragment, Pseudomonas capeferrum)
chain: AQADFDIPAGPLAPALAHFGKSAHILLSYPTALTEGRSTSGLAGRFDIDQGLAILLAGTGLEASRGANASYSLQASASTG
notes: PupB of Pseudomonas capeferrum, N-terminal signaling domain, 82 residues; also called PupB NTSD Q69K; Q79K (misprint in two places); source: pET41 GST-PupB NTSD plasmid

How the values were obtained:
Test in all cases: ITC; MBP-PupR CCSSD (140-230 µM) titrated into PupB NTSD mutants (20-70 µM); 15 °C; 25 mM HEPES pH 7.5, 400 mM LiCl, 10% glycerol; triplicate, global single-site analysis (NITPIC, SEDPHAT)
[1] = target: B2; settings: both partners purified
[2] = target: T1, PupB N-terminal signaling domain H72D …; settings: remark: other sources report otherwise
[3] = target: B1; settings: both partners purified

Binder | dH [1] [kcal/mol] | Kd [2] [µM] | dH [2] [kcal/mol] | Kd [3] [µM]
B1 | -14.5 | 27.7 | -23 | 
B2 |  |  |  | 1.55
